Our source for the Kd, koff and kon values is patent US20220204613A1 (D 10 THERAPEUTICS, published 2022).

This test deals with T1, human CD47 protein (human, UniProt Q08722 19-139, limits assumed).
T1 construct: also called human CD47 antigen
In words: SPR Biacore, supernatant antibody Fc-captured, human CD47 analyte 5 nM. On the procedure:
Production and affinity ranking of humanized antibodies. The designed plasmids of heavy chain and light chain were sent for 3 mL transfection following GenScript's SOP. For affinity ranking, Antibodies were captured on the sensor chip through Fc capture method. Human CD47 protein was used as the analyte. The surface was regenerated before the injection of another antibody. The process was repeated until all antibodies were analyzed. The off-rates of antibodies were obtained from fitting the experimental data locally to 1:1 interaction model using the Biacore® T200/8K evaluation software. The antibodies were ranked by their dissociation rate constants (off-rates, kd).

T1 sequence (Q08722 19-139 limits assumed): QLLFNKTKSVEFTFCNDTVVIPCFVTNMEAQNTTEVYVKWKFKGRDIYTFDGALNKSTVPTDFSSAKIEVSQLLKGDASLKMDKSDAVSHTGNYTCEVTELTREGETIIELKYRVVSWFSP

B1: chimeric-VH-PTM1+VL-1 (antibody, human IgG4 S228P, V domains shown)
VH: EVQLQQSGPELVKPGASVKLSCKASGYTFTSSVIHWVKQKPGQGLEWLGYINPYSEGTKFNEKSKIKATLTSDKSSSTAYMELSSLTSEDSAVYYCARGLIGTRYDSWFAYWGQGTLVTVSA
VL: DIQMTQNGSSLSASLGDRVTISCRTSQDINNYLNWYQQKQDGTVKLLIYYTSRLHSGVPSRFSGSGSGTDYSLTIRNLEQEDIATYFCQQGNTLPYTFGGGTKLEIK
notes: Heavy chain with hIgG4 CH (S228P); Light chain: mouse VL-1 with a human constant region; Tested from supernatant; also called U0959FD090-chimeric-VH-PTM1 with 32G8H6 VL-1
Regarding B1, the Kd (in general, the concentration at which binding is half-saturated) was 0.292 nM; the koff (as a rule, the first-order rate constant of dissociation) was 0.00215 s⁻¹; the on-rate constant (kon) – broadly, the second-order rate constant of association – is 7.36e+06 M⁻¹ s⁻¹.

B2: chimeric-VH-PTM2+VL-1 (antibody, human IgG4 S228P, V domains shown)
VH: EVQLQQSGPELVKPGASVKLSCKASGYTFTSSVIHWVKQKPGQGLEWLGYINPYSDATKFNEKSKIKATLTSDKSSSTAYMELSSLTSEDSAVYYCARGLIGTRYDSWFAYWGQGTLVTVSA
VL: DIQMTQNGSSLSASLGDRVTISCRTSQDINNYLNWYQQKQDGTVKLLIYYTSRLHSGVPSRFSGSGSGTDYSLTIRNLEQEDIATYFCQQGNTLPYTFGGGTKLEIK
notes: Heavy chain with hIgG4 CH (S228P); Light chain: mouse VL-1 with a human constant region; Tested from supernatant; also called U0959FD090-chimeric-VH-PTM2 with 32G8H6 VL-1
On to B2, for which binding was put at a Kd of 0.488 nM, the koff was determined as 0.00442 s⁻¹ and the kon is 9.06e+06 M⁻¹ s⁻¹.

B3: VH2+VL2 (antibody, human IgG4 S228P, kappa, V domains shown)
VH: QVQLVQSGAEVKKPGASVKVSCKASGYTFTSSVIHWVRQAPGQGLEWLGYINPYSDGTKFNEKCKIRATMTSDTSISTAYMELSRLRSDDTAVYYCARGLIGTRYDSWFAYWGQGTLVTVSS
VL: DIQMTQSPSSLSASVGDRVTITCRTSQDINNYLNWYQQKPGKAVKLLIYYTSRLHSGVPSRFSGSGSGTDFTFTISSLQPEDIATYFCQQGNTLPYTFGGGTKVEIKR
notes: Humanized IgG, hIgG4 CH (S228P) and human kappa CL; leader residues 1-19 of each entry left out; Tested from supernatant; also called U0959FD090-VH2 + U0959FD090-VL2
Molecule B3 had a Kd of 0.698 nM, a koff of 0.00413 s⁻¹ and a kon of 5.92e+06 M⁻¹ s⁻¹.

B4: VH4+VL2 (antibody, human IgG4 S228P, kappa, V domains shown)
VH: QVQLVQSGAEVKKPGASVKVSCKASGYTFTSSVIHWVKQAPGQGLEWLGYINPYSDGTKFNEKCKIRATMTSDKSISTAYMELSRLRSDDTAVYYCARGLIGTRYDSWFAYWGQGTLVTVSS
VL: DIQMTQSPSSLSASVGDRVTITCRTSQDINNYLNWYQQKPGKAVKLLIYYTSRLHSGVPSRFSGSGSGTDFTFTISSLQPEDIATYFCQQGNTLPYTFGGGTKVEIKR
notes: Humanized IgG, hIgG4 CH (S228P) and human kappa CL; leader residues 1-19 of each entry left out; Tested from supernatant; also called U0959FD090-VH4 + U0959FD090-VL2
The molecule B4 returned a Kd of 0.772 nM, a koff of 0.00335 s⁻¹ and a kon of 4.34e+06 M⁻¹ s⁻¹.

B5: VH3+VL2 (antibody, human IgG4 S228P, kappa, V domains shown)
VH: QVQLVQSGAEVKKPGASVKVSCKASGYTFTSSVIHWVKQAPGQGLEWLGYINPYSDGTKFNEKCKIRVTLTSDTSISTAYMELSRLRSDDTAVYYCARGLIGTRYDSWFAYWGQGTLVTVSS
VL: DIQMTQSPSSLSASVGDRVTITCRTSQDINNYLNWYQQKPGKAVKLLIYYTSRLHSGVPSRFSGSGSGTDFTFTISSLQPEDIATYFCQQGNTLPYTFGGGTKVEIKR
notes: Humanized IgG, hIgG4 CH (S228P) and human kappa CL; leader residues 1-19 of each entry left out; Tested from supernatant; also called U0959FD090-VH3 + U0959FD090-VL2
Consider B5, for which the dissociation constant Kd was 0.638 nM, the off-rate (koff) was 0.00378 s⁻¹ and the association rate constant (kon) came out at 5.93e+06 M⁻¹ s⁻¹.

B6: VH4+VL4 (antibody, human IgG4 S228P, kappa, V domains shown)
VH: QVQLVQSGAEVKKPGASVKVSCKASGYTFTSSVIHWVKQAPGQGLEWLGYINPYSDGTKFNEKCKIRATMTSDKSISTAYMELSRLRSDDTAVYYCARGLIGTRYDSWFAYWGQGTLVTVSS
VL: DIQMTQSPSSLSASVGDRVTISCRTSQDINNYLNWYQQKPGKTVKLLIYYTSRLHSGVPSRFSGSGSGTDYTFTISSLQPEDIATYFCQQGNTLPYTFGGGTKVEIKR
notes: Humanized IgG, hIgG4 CH (S228P) and human kappa CL; leader residues 1-19 of each entry left out; Tested from supernatant; also called U0959FD090-VH4 + U0959FD090-VL4
B6 returned a Kd of 0.553 nM, an off-rate constant (koff) of 0.00278 s⁻¹ and an on-rate (kon) of 5.02e+06 M⁻¹ s⁻¹.

B7: VH2+VL1 (antibody, human IgG4 S228P, kappa, V domains shown)
VH: QVQLVQSGAEVKKPGASVKVSCKASGYTFTSSVIHWVRQAPGQGLEWLGYINPYSDGTKFNEKCKIRATMTSDTSISTAYMELSRLRSDDTAVYYCARGLIGTRYDSWFAYWGQGTLVTVSS
VL: DIQMTQSPSSLSASVGDRVTITCRTSQDINNYLNWYQQKPGKAPKLLIYYTSRLHSGVPSRFSGSGSGTDFTFTISSLQPEDIATYYCQQGNTLPYTFGGGTKVEIKR
notes: Humanized IgG, hIgG4 CH (S228P) and human kappa CL; leader residues 1-19 of each entry left out; Tested from supernatant; also called U0959FD090-VH2 + U0959FD090-VL1
On to B7, for which the equilibrium dissociation constant (Kd) stood at 1 nM, the off-rate (koff) was 0.00648 s⁻¹ and the kon is 6.47e+06 M⁻¹ s⁻¹.

B8: VH2+VL3 (antibody, human IgG4 S228P, kappa, V domains shown)
VH: QVQLVQSGAEVKKPGASVKVSCKASGYTFTSSVIHWVRQAPGQGLEWLGYINPYSDGTKFNEKCKIRATMTSDTSISTAYMELSRLRSDDTAVYYCARGLIGTRYDSWFAYWGQGTLVTVSS
VL: DIQMTQSPSSLSASVGDRVTITCRTSQDINNYLNWYQQKPGKAVKLLIYYTSRLHSGVPSRFSGSGSGTDYTFTISSLQPEDIATYFCQQGNTLPYTFGGGTKVEIKR
notes: Humanized IgG, hIgG4 CH (S228P) and human kappa CL; leader residues 1-19 of each entry left out; Tested from supernatant; also called U0959FD090-VH2 + U0959FD090-VL3
B8 came in with a dissociation constant (Kd) of 0.597 nM, a koff of 0.00348 s⁻¹ and a kon of 5.83e+06 M⁻¹ s⁻¹.

B9: VH3+VL1 (antibody, human IgG4 S228P, kappa, V domains shown)
VH: QVQLVQSGAEVKKPGASVKVSCKASGYTFTSSVIHWVKQAPGQGLEWLGYINPYSDGTKFNEKCKIRVTLTSDTSISTAYMELSRLRSDDTAVYYCARGLIGTRYDSWFAYWGQGTLVTVSS
VL: DIQMTQSPSSLSASVGDRVTITCRTSQDINNYLNWYQQKPGKAPKLLIYYTSRLHSGVPSRFSGSGSGTDFTFTISSLQPEDIATYYCQQGNTLPYTFGGGTKVEIKR
notes: Humanized IgG, hIgG4 CH (S228P) and human kappa CL; leader residues 1-19 of each entry left out; Tested from supernatant; also called U0959FD090-VH3 + U0959FD090-VL1
On to B9, for which the Kd worked out at 0.803 nM, the off-rate constant (koff) is 0.00553 s⁻¹ and the kon amounted to 6.89e+06 M⁻¹ s⁻¹.
